This note sets out measurements from US20220175942A1 (OXFORD UNIVERSITY INNOVATION, published 2022).

Sequences and labels used below:
B2: CCL19_HUMAN (ligand)
chain: GTNDAEDCCLSVTQKPIPGYIVRNFHYLLIKDGCRVPAVVFTTLRGRQLCAPPDQPWVERIIQRLQRTSAKMKRRSS
notes: Biotinylated (detected with streptavidin-Alexa647) in yeast display; AlexaFluor 647 labelled (Almac) in thermophoresis
B7: CCL17_HUMAN (ligand)
chain: ARGTNVGRECCLEYFKGAIPLRKLKTWYQTSEDCSRDAIVFVTVQGRAICSDPNNKRVKNAVKYLQSLERS
notes: as for B2

Test [1] concerns the target T1, CCL25_HUMAN (human, UniProt O15444 24-150).
T1 construct: Biotinylated (detected with streptavidin-Alexa647) in yeast display; AlexaFluor 647 labelled (Almac) in thermophoresis
T1 sequence: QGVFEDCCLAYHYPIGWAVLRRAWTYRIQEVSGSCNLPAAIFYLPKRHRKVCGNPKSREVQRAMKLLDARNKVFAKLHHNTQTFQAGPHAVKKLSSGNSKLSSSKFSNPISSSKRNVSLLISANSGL
The test can be described thus: yeast surface display library FACS screen, labelled chemokine (col C: isolated in).

The next test concerns the target T2, CCL1_HUMAN (human, UniProt P22362 24-96).
T2 construct: Biotinylated (detected with streptavidin-Alexa647) in yeast display; AlexaFluor 647 labelled (Almac) in thermophoresis
T2 sequence: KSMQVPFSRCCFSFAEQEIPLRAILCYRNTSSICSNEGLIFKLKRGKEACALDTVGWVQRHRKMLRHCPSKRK
The test is described as above.

A further test concerns the target T3, CXCL8_HUMAN (human, UniProt P10145 28-99).
T3 construct: Biotinylated (detected with streptavidin-Alexa647) in yeast display; AlexaFluor 647 labelled (Almac) in thermophoresis
T3 sequence: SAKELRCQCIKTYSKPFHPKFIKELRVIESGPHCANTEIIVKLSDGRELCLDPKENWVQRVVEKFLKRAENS
The description is as above.

Another test addresses T4, CCL11_HUMAN (human, UniProt P51671 24-97).
T4 construct: Biotinylated (detected with streptavidin-Alexa647) in yeast display; AlexaFluor 647 labelled (Almac) in thermophoresis
The test is described as above.

The test “CCL19_HUMAN” addresses B2. Kind of test: yeast surface display FACS re-test, >3 fold MFI over control (col D).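 Also: yeast displaying putative tick Evasins stained with biotinylated human chemokine plus streptavidin-Alexa647, flow cytometry, positive when MFI exceeds 3-fold the empty-vector or no-chemokine background.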
Test [2] addresses T5, CCL5_HUMAN (human, UniProt P13501 24-91).
T5 construct: Biotinylated (detected with streptavidin-Alexa647) in yeast display; AlexaFluor 647 labelled (Almac) in thermophoresis
T5 sequence: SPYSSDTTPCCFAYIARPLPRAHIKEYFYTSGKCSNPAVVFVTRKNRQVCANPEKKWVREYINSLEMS
The description is as above.

The target in a further test is T6, CCL22_HUMAN (human, UniProt O00626 25-93).
T6 construct: Biotinylated (detected with streptavidin-Alexa647) in yeast display; AlexaFluor 647 labelled (Almac) in thermophoresis
T6 sequence: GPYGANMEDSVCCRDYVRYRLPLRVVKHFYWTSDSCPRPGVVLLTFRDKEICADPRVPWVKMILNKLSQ
Described as above.

The next test concerns the target T7, P991_AMBCA (Amblyomma cajennense, UniProt A0A023FFD0 29-136).
T7 construct: Tick evasin; also called Evasin
T7 sequence: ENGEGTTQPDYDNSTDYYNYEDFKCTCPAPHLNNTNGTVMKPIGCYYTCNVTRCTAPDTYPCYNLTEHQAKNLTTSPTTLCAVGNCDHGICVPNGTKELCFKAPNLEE
Kind of test: yeast surface display library FACS screen, labelled chemokine (col C: isolated in).

Test [3] has as its target T8, P1243_AMBAM (Amblyomma americanum, UniProt A0A0C9S461 26-123).
T8 construct: Tick evasin; also called Evasin
T8 sequence: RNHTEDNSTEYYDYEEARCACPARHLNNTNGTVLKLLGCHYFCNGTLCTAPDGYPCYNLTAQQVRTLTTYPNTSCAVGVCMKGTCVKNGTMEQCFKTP
The test can be described thus: yeast surface display FACS re-test, >3 fold MFI over control (col D).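 Also: yeast displaying putative tick Evasins stained with biotinylated human chemokine plus streptavidin-Alexa647, flow cytometry, positive when MFI exceeds 3-fold the empty-vector or no-chemokine background.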

Another test addresses T9, CCL4 (human, UniProt P13236 24-92).
T9 construct: Biotinylated (detected with streptavidin-Alexa647) in yeast display; also called human CCL4
T9 sequence: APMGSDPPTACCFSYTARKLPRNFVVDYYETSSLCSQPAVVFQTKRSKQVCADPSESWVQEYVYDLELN
The description is as above.

The target of test [4] is B7. Kind of test: yeast surface display library FACS screen, labelled chemokine (col C: isolated in).
Test [5] has as its target T10, CCL20_HUMAN (human, UniProt P78556 27-96).
T10 construct: Biotinylated (detected with streptavidin-Alexa647) in yeast display; AlexaFluor 647 labelled (Almac) in thermophoresis
The test is described as above.

Test [6] has as its target T5, CCL5_HUMAN. Described as above.
Test [7] addresses T1, CCL25_HUMAN. The test can be described thus: yeast surface display FACS re-test, >3 fold MFI over control (col D).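 Also: yeast displaying putative tick Evasins stained with biotinylated human chemokine plus streptavidin-Alexa647, flow cytometry, positive when MFI exceeds 3-fold the empty-vector or no-chemokine background.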
In another test the target is T11, CCL18_HUMAN (human, UniProt P55774 21-89).
T11 construct: Biotinylated (detected with streptavidin-Alexa647) in yeast display; AlexaFluor 647 labelled (Almac) in thermophoresis
T11 sequence: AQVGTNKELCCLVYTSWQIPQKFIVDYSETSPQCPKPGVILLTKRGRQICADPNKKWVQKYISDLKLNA
The description is as above.

The target of test [8] is B7. The test is described as above.
Another test has as its target T12, CCL8_HUMAN (human, UniProt P80075 24-99).
T12 construct: Biotinylated (detected with streptavidin-Alexa647) in yeast display; AlexaFluor 647 labelled (Almac) in thermophoresis
T12 sequence: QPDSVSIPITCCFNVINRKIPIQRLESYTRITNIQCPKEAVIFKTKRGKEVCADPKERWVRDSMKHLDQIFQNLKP
The description is as above.

For a further test, the target named is T13, CXCL10_HUMAN (human, UniProt P02778 22-98).
T13 construct: Biotinylated (detected with streptavidin-Alexa647) in yeast display; AlexaFluor 647 labelled (Almac) in thermophoresis
T13 sequence: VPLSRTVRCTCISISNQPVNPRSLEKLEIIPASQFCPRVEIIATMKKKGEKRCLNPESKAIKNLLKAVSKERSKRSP
The test is described as above.

The target of test [9] is T10, CCL20_HUMAN. The test is described as above.
Another test deals with T14, P467_RHIPU (Rhipicephalus pulchellus, UniProt L7M8Z8 22-127).
T14 construct: Tick evasin; also called Evasin
T14 sequence: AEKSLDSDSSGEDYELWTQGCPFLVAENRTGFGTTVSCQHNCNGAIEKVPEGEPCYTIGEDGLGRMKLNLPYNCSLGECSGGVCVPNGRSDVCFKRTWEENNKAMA
The test can be described thus: yeast surface display library FACS screen, labelled chemokine (col C: isolated in).

The next test addresses T15, P1181_AMBMA (Amblyomma maculatum, UniProt G3MIX6 26-115).
T15 construct: Tick evasin; also called Evasin
T15 sequence: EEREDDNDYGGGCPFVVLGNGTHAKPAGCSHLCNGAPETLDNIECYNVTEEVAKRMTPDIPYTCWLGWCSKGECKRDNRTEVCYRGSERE
The description is as above.

Another test addresses T16, P1182_AMBMA (Amblyomma maculatum, UniProt G3MJ83 27-115).
T16 construct: Tick evasin; also called Evasin
T16 sequence: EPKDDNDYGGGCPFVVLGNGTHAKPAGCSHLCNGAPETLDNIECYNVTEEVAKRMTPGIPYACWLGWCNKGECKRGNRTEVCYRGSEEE
Described as above.

Test [10] addresses T17, P546_AMBCA (Amblyomma cajennense, UniProt A0A023FBW7 22-118).
T17 construct: Tick evasin; also called Evasin
T17 sequence: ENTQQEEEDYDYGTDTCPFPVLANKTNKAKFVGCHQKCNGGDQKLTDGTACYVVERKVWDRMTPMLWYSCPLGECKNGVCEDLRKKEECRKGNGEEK
Kind of test: microscale thermophoresis, AlexaFluor 647 labelled chemokine. (In general: In MST a laser heats a spot of the sample, and binding alters the fluorescence response.)

Another test concerns the target T18, P974_AMBCA (Amblyomma cajennense, UniProt A0A023FDY8 22-118).
T18 construct: Tick evasin; also called Evasin
T18 sequence: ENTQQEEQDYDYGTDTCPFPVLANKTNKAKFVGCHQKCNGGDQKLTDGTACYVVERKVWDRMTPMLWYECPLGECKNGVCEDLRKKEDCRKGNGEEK
The test can be described thus: yeast surface display library FACS screen, labelled chemokine (col C: isolated in).

Test [11] addresses T8, P1243_AMBAM. The description is as above.
For test [12], the target named is T17, P546_AMBCA. Kind of test: yeast surface display FACS re-test, >3 fold MFI over control (col D).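 Also: yeast displaying putative tick Evasins stained with biotinylated human chemokine plus streptavidin-Alexa647, flow cytometry, positive when MFI exceeds 3-fold the empty-vector or no-chemokine background.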

T10 sequence (P78556 27-96 limits assumed): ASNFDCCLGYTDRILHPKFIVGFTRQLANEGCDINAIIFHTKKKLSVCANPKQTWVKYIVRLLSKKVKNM
T4 sequence (P51671 24-97 limits assumed): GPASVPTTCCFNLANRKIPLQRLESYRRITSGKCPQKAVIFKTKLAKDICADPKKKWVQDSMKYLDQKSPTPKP

B1: P1006_AMBCA (other)
chain: DTIGGIPGCGDPATTSAPEDQPKHYAVRTDKNGCKVMVIGTWMTKEDHNLLPPYISKERAPSGKVQLPASCKKNCHGKLKNLPNGTPCREVFGDLRRRRKHIKDGCKVGKCQNGLCVSEERIISCYLPPNITDPRPTHGPLAE
notes: Tick evasin; also called Evasin
On to B1, for which the binding result with CCL25_HUMAN [1], in the test with CCL1_HUMAN, with CXCL8_HUMAN, with CCL11_HUMAN, with CCL19_HUMAN and in the test with CCL5_HUMAN [2] was “binds” throughout. The binding result with CCL22_HUMAN is reported as “binds”.
For the molecule B2, the binding result with P991_AMBCA and in the test with P1243_AMBAM [3] was “binds” each time.

B3: P1014_AMBCA (other)
chain: DIIGGIPGCGDPTTTSAPEVPPKHFAVRTDKDGCTLMIIGTWMTTEDHNRLPPDIGEKRAPYGRVQLPASCKKNCHGKVKNLPNGTPCREVFGDPRRGRKHIKNGCTVGKCQSGLCVTDKRIISCYIPPNITDPIPTHGPWAE
notes: as for B1
Take B3: the binding result in the test with CCL25_HUMAN [1], with CCL1_HUMAN, with CCL11_HUMAN and with CCL4 was “binds” in each case.

B4: P993_AMBPA (other)
chain: HRHYDPNEPCLIAGLKTPRDALPAGCRYDCMIKKNQKLRDGLLCLDVPEKVVKRMVNYLNYSCPLGTCRKGICKRKHRNVRCQKYPVFYMSPPK
notes: Tick evasin
Take B4: the binding result with CCL25_HUMAN [1], with CCL1_HUMAN, with CXCL8_HUMAN, in the test with CCL17_HUMAN [4], with CCL11_HUMAN and with CCL20_HUMAN [5] was “binds” each time. The binding result with CCL5_HUMAN [2] is “binds”.

B5: P1209_AMBPA (other)
chain: KTDTKNAAGELPPKVAIPGCEDPATTKAPLPDDPRYYGVTIDKDGCQRKVLGSSQRQQRQVQNGRKPGRKGRGRRPVFVDLKLTVDCKRKCNGTYSQLPDGEPCLVCDGEPYGRHRTIKGGCYQGNCSSGQCHRGERKVNCYIPKNITNNVLNSVNLAE
notes: as for B1
Regarding B5, the binding result with CCL1_HUMAN, with CCL5_HUMAN [6], with CXCL8_HUMAN, with CCL11_HUMAN, in the test with CCL25_HUMAN [7] and with CCL19_HUMAN was “binds” throughout. Moreover, the binding result with CCL18_HUMAN, in the test with CCL17_HUMAN [8], with CCL8_HUMAN, with CXCL10_HUMAN and with CCL20_HUMAN [9] was “binds” each time.

B6: CCL3_HUMAN (ligand)
chain: SLAADTPTACCFSYTSRQIPQNFIADYFETSSQCSKPGVIFLTKRSRQVCADPSEEWVQKYVSDLELSA
notes: as for B2
In general, Kd refers to the concentration at which binding is half-saturated. For B6, the binding result with P467_RHIPU, with P1181_AMBMA, with P1182_AMBMA and in the test with P1243_AMBAM [3] was “binds” throughout. In the test with P546_AMBCA [10], this molecule displayed a Kd of 171 nM.
In the case of B7, the binding result with P974_AMBCA, in the test with P1243_AMBAM [11], with P991_AMBCA and in the test with P546_AMBCA [12] was “binds” throughout.

B8: P1252_AMBAM (other)
chain: RGGAASVPANASIPGCGDAQTTPAAPEDQPKHYVVYRDGNGCEVKIIGTWMTTEDYNCLPDTFRKNRAPHGKVKLPASCKKTCGNAVQNLKDGTPCRKVFGDLGRRRNLIKNGCLVGACQSGLCVSGNRTISCYIPPNSTDTRATPGSFAE
notes: as for B1
As to B8, the binding result with CCL17_HUMAN [4], with CCL11_HUMAN and in the test with CCL20_HUMAN [5] was “binds” in each case.
